According to article PMC7185751 (Biochimica et Biophysica Acta. Proteins and Proteomics, 2014):
Where two headings read alike, the source gives them in different places. Where a SMILES comes first, the peptide text is derived from it.

Key:
His57 [1] = molecular target: T1, His57 (UniProt position 57, VVTAAHCGVTT); settings: cited from earlier work
α-chymotrypsin [2] = molecular target: T2, α-chymotrypsin (Bos taurus, UniProt P00766); settings: from pH 7.2 to 3.2 or 10.2; cited from earlier work
[3] = system: histidine-57 in α-chymotrypsin; settings: cited from earlier work
His57 [4] = molecular target: T1, His57; assay: NMR; settings: 25 °C; hemiketal complex with the glyoxal inhibitor Z-Ala-Ala-Phe-COCHO; cited from earlier work
α-chymotrypsin [5] = molecular target: T2, α-chymotrypsin; settings: from pH 8 to 3, chymotrypsin; cited from earlier work
[6] = 13C-NMR pH titration of free inhibitor; format: physicochemical; settings: carboxyl group, determined by 13C-NMR

For “delta-chymotrypsin (Bos taurus (inferred))”, the pKa (His57 [1]; free enzyme) is given as 7.5.

For C[C@H](NC(=O)OCc1ccccc1)C(=O)N1CCC[C@H]1C(=O)N[C@@H](Cc1ccccc1)C(=O)C=O [ZAPF-COCHO], the “change of hemiketal formation” value (α-chymotrypsin [2]) is listed as “decreases”.

For “chymotrypsin (activation form not specified in the quoting sentence) (Bos taurus (inferred))”, the pKa (His57 [1]; negatively charged tetrahedral adduct with peptidyl boronic acid inhibitors) is listed as > 10.

For CC(=O)N[C@@H](CC(C)C)C(=O)N[C@H](C=O)Cc1ccccc1 [Acetyl-Leu-Phe-CHO] (Ac-Leu-Phe-aldehyde), the “histidine pKa in the complex with α-chymotrypsin” value [3] is listed as 6.5.

For “alpha-chymotrypsin (Bos taurus (inferred; the article only says commercial alpha-chymotrypsin from Sigma))”, the pKa (His57 [4]) is listed as > 11, the pKa (His57 [1]; complex with the aldehyde inhibitor Acetyl-Leu-Phe-CHO (hemiacetal)) is listed as 6.5 and the pKa (His57 [1]; free enzyme) is listed as 6.7.

In the case of O=C[C@H](Cc1ccccc1)NC(=O)c1ccccc1 [Bz-Phe-CHO], the “fold increase in Ki” value (α-chymotrypsin [5]) is given as 4 fold.

CC(NC(=O)OCc1ccccc1)C(=O)NC(C)C(=O)NC(Cc1ccccc1)[13C](=O)O (stereo not drawn) [ZAAF-^13COOH] showed a pKa [6] of 3.52 ± 0.03.
